B1: RecA (native, untagged) (enzyme, Bacillus subtilis, UniProt P16971 1-348, looked up)
chain: MSDRQAALDMALKQIEKQFGKGSIMKLGEKTDTRISTVPSGSLALDTALGIGGYPRGRIIEVYGPESSGKTTVALHAIAEVQQQGGQAAFIDAEHALDPVYAQKLGVNIEELLLSQPDTGEQALEIAEALVRSGAVDIVVVDSVAALVPKAEIEGDMGDSHVGLQARLMSQALRKLSGAINKSKTIAIFINQIREKVGVMFGNPETTPGGRALKFYSSVRLEVRRAEQLKQGNDVMGNKTKIKVVKNKVAPPFRTAEVDIMYGEGISKEGEIIDLGTELDIVQKSGSWYSYEEERLGQGRENAKQFLKENKDIMLMIQEQIREHYGLDNNGVVQQQAEETQEELEFEE
notes: Bacillus subtilis recombinase RecA; purified protein of 38.0 kDa; The printed mass of 38.0 kDa fits the whole protein; also called native RecA; apo RecA; source: B. subtilis BG214 bearing pBT61-borne recA, over-expressed and purified
B2: His-tagged DisA (enzyme, Bacillus subtilis, UniProt P37573 1-360, looked up)
chain: MEKEKKGAKHELDLSSILQFVAPGTPLRAGMENVLRANTGGLIVVGYNDKVKEVVDGGFHINTAFSPAHLYELAKMDGAIILSDSGQKILYANTQLMPDATISSSETGMRHRTAERVAKQTGCLVIAISERRNVITLYQENMKYTLKDIGFILTKANQAIQTLEKYKTILDKTINALNALEFEELVTFSDVLSVMHRYEMVLRIKNEINMYIKELGTEGHLIKLQVIELITDMEEEAALFIKDYVKEKIKDPFVLLKELQDMSSYDLLDDSIVYKLLGYPASTNLDDYVLPRGYRLLNKIPRLPMPIVENVVEAFGVLPRIIEASAEELDEVEGIGEVRAQKIKKGLKRLQEKHYLDRQL

Key:
His-tagged DisA = target: B2; assay: pull-down; His-tagged DisA and native RecA (1.5 μg each) loaded on a 50-μl Ni2+ microcolumn, room temperature, Buffer A (50 mM Tris-HCl pH 7.5, 50 mM NaCl, 10 mM MgCl2, 5% glycerol) with 20 mM imidazole, without ssDNA and ATP; eluted with 1 M NaCl and 400 mM imidazole; SDS-PAGE, Coomassie and Western blot; conditions: both partners purified
RecA (native, untagged) = target: B1; assay: cell-based or functional assay

| Binder | binding result (His-tagged DisA) | RecA-mediated three-strand DNA exchange with SsbA and RecO in ATPγS, fold reduction at a DisA:RecA molar ratio of 1:48 (RecA (native, untagged)) [fold] |
| --- | --- | --- |
| B1 | binds |  |
| B2 |  | ~18 |
